Data: US20250388666A1 (BRIGHAM AND WOMEN S HOSPITAL, published 2025)

T1: CEACAM1 on transfected HeLa cells (Homo sapiens (Human), UniProt P13688 35-526)
T1 construct: also called C1
T1 sequence: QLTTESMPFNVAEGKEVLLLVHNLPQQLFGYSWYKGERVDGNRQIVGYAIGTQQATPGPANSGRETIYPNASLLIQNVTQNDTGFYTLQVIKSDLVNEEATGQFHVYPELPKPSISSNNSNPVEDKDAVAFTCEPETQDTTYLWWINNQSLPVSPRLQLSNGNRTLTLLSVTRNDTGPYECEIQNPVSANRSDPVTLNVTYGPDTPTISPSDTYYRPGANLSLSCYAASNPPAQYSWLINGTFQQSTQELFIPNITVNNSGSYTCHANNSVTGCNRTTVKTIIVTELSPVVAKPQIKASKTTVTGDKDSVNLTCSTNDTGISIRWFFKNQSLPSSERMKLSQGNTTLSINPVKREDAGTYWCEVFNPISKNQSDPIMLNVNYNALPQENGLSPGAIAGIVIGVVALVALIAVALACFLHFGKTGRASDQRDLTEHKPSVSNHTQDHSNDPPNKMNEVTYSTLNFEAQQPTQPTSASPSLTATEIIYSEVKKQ

T2: CEACAM5 on transfected HeLa cells (UniProt P06731 35-685)
T2 construct: whole, on cells; also called C5
T2 sequence (looked up): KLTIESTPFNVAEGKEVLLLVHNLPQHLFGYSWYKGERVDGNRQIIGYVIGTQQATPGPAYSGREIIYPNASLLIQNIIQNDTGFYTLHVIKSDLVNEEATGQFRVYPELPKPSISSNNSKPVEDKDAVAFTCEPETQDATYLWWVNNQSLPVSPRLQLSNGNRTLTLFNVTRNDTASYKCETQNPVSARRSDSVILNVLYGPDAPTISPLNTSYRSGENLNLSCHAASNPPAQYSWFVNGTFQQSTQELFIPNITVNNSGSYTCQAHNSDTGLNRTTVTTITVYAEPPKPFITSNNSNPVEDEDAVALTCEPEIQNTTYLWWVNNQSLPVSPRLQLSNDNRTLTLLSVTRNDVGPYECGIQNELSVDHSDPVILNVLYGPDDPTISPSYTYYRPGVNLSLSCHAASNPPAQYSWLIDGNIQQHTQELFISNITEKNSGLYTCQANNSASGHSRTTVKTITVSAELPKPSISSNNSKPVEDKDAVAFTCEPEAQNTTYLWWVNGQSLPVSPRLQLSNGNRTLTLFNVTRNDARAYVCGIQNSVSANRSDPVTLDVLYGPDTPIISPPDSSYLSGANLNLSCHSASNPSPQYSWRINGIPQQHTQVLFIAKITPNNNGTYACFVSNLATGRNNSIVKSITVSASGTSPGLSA

T3: CEACAM1 (Sino Biological) (human, UniProt P13688 35-428, limits assumed)
T3 construct: may be the same as CEACAM1-HIS; also called hCEACAM1; biotinylated soluble CEACAM1
T3 sequence: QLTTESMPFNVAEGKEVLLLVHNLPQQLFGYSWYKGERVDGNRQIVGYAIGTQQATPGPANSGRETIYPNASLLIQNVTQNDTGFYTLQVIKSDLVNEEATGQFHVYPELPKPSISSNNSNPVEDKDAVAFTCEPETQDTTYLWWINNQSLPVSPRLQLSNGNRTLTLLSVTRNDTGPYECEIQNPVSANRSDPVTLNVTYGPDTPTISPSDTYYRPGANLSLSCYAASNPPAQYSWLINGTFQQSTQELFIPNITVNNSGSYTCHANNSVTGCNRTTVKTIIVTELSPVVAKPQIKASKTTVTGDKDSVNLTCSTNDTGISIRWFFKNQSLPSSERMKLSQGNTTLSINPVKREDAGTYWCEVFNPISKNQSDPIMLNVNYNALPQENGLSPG

T4: CEACAM3 (Sino Biological) (human, UniProt P40198 35-155, limits assumed)
T4 construct: also called hCEACAM3
T4 sequence (looked up): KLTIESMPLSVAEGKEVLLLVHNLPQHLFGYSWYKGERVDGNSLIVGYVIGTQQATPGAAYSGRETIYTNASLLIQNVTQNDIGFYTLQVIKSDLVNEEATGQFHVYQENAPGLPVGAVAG


Experiments:
[1] = molecular target: T1, CEACAM1 on transfected HeLa cells; test: flow cytometry, transfected HeLa
Procedure: (§1) Binding selectivity of the selected antibody variants was assessed by flow cytometry using HeLa cells transfected with vectors expressing CEACAM1, CEACAM5, and CEACAM6, respectively. The resulting cells were used for flow cytometry experiments and were cultured at 37° C., 5.0% CO₂ in Dulbecco's modified Eagle's medium supplemented with 10% fetal bovine serum, penicillin (100 U/ml) and dihydrostreptomycin ([…]). Cell lines were stained with the indicated antibodies followed by fluorochrome-conjugated monoclonal antibody specific for the indicated antibody isotypes such as human IgG4 or mouse IgG1 together with viable dye (DAPI). Data were acquired with a Cytoflex flow cytometer ([…]) and analyzed with FlowJo software (TreeStar, V7.6.5 for Windows).

[2] = molecular target: T2, CEACAM5 on transfected HeLa cells; test: flow cytometry, transfected HeLa
Procedure: as §1

[3] = molecular target: T3, CEACAM1 (Sino Biological); test: SPR multi-cycle, IgG on Protein A
[4] = molecular target: T4, CEACAM3 (Sino Biological); test: binding ELISA on plate-coated CEACAM (0.5 µg/mL); antibody at 1.67, 0.062 and 0.0069 µg/mL; signal as % of parent IgG on CEACAM1 at 1.67 µg/mL on the same plate

relative fluorescence intensity [1] | relative fluorescence intensity [2] | relative KD to Parent [3] [ratio] | binding result [4] | Binder
84.2 | 0.42 |  |  | chimeric parental antibody VH0/Vκ0 (antibody, IgG4, V domains shown, IgG4 (S241P), kappa; also called Chimera; chimeric antibody) VH: EVQLVESGGGFVKPGGSLKLSCAASGFSFSDYYLYWVRQTPEKRLEWVATISVGGGNTSYPDSVKGRFTISRDNAKNNLYLQMSSLKSEDTAMYYCTRGLYYGPAWFAYWGQGTLVTVSA VL: not shown
89.3 | 0 | 1 | no binding (tested: 1.67 µg/mL) | VH2 N56Q/Vκ4 S27(f)A IgG (antibody, V domains shown, IgG4 S241P, kappa; also called Parent; Parent IgG) VH: EVQLLESGGGLVQPGGSLRLSCAASGFSFSDYYLYWVRQAPGKGLEWVATISVGGGQTSYADSVKGRFTISRDNSKNTLYLQMNSLRAEDTAMYYCTRGLYYGPAWFAYWGQGTLVTVSS VL: not shown
